According to patent US20100272737A1 (AGENCY FOR SCIENCE TECHNOLOGY AND RESEARCH, published 2010):

Target: T1, Flag-tagged Cavβ3-subunit (rat, UniProt P54287 1-484)
T1 construct: whole, on cells; Flag-tagged in co-immunoprecipitation, pull-down and immunofluorescence; also called Flag-Cavβ3; N-Flag Cavβ3-subunits
Experiment: dissociation of β3 from GST-AID by peptide, Western blot of the supernatant
Method: B, BARP displaces the Caᵥβ3-subunit from the AID. In vivo expressed Caᵥβ3-subunits were pulled-down using a GST-AID fusion protein and the complex then incubated with increasing amounts of AID or BARP Domain I peptide. The Caᵥβ3-subunit displaced from the GST-AID was monitored by Western blot.
Preparation of cell homogenates lysed into a buffer containing (50 mM Tris-HCl (pH 7.5), 100 mM NaCl, 1 mM MgCl₂, 0.5% Triton) supplemented with proteases inhibitors, co-immunoprecipitation and Western blot analysis using the generated antibodies together with monoclonal anti-FLAG(M2; Sigma), rabbit anti-GST (Santa Cruz Biotechnology), rabbit Caᵥ1.2 (Chemicon International), Caᵥ2.1(Alomone labs), Caᵥ2.2 (Calbiochem), Caᵥβ₃ (Alomone labs) antibodies were carried out essentially as described in. Brain, skeletal muscle and heart lysates were purchased from Zyagen Laboratories. In vitro synthesized BARP was produced by using the TNT quick coupled transcription/translation systems (Promega). For the dissociation experiments, an AID peptide ([…]) and a BARP domain I peptide ([…]) were synthesized (Mimotopes). […] After extensive wash to remove unassociated β₃-subunits, increasing concentration of peptide (30, 60, 300, 600 nM) were added. After an incubation of four hours, 10% of the supernatant containing the dissociated β₃-subunit were loaded on SDS-PAGE and subjected to Western blot analysis. […]

T1 sequence (P54287 whole entry): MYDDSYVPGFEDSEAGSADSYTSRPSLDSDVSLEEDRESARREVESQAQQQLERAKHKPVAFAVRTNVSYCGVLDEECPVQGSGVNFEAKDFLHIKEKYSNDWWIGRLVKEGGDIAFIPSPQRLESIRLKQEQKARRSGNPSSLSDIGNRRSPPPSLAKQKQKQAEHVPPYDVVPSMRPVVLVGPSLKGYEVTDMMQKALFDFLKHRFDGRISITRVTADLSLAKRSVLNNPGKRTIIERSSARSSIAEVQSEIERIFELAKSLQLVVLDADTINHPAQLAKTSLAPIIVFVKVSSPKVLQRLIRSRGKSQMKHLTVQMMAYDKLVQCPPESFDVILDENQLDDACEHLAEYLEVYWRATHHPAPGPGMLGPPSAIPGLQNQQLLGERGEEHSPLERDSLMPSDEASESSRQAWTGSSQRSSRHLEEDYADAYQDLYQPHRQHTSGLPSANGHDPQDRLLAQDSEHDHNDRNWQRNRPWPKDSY

binding result: binds
B1: BARP domain I peptide (peptide)
peptide: SYRDLWSLRASLELHAATASD
notes: Synthesized by Mimotopes; also called AID-like BARP peptide
